The source of these data is patent US20120058906A1 (published 2012).

Assay [1] concerns the target T1, rHuman IGF-1 sR, (IGF-1 sR), CF (R&D Systems Cat#391-GR) (human, UniProt P08069 31-932).
T1 construct: also called insulin-like growth factor-1 soluble receptor; IGF-R1
The assay is described as follows: MSD ECL multi-spot plate; Fab 8.1 nM; blank spot 435.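 Also: blank spot per well as comparator with Hit at signal to blank ratio of 4 or more.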

Assay [2] has as its target T2, rHuman Erythropoietin R/Fc Chimera, CF (R&D Systems Cat#963-ER) (human, UniProt P19235 25-250).
T2 construct: also called EPO R/Fc; Epo R; Fc part of the bought chimera not given
T2 sequence: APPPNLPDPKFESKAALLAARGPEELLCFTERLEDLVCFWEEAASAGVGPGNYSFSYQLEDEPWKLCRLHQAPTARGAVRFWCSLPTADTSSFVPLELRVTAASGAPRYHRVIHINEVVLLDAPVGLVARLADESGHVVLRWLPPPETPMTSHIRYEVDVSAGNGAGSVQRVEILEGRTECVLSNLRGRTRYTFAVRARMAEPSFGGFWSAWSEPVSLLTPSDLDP
Described as above.

Assay [3] has as its target T3, Recombinant Human DLL4 (R&D Systems Cat#1506-D4/CF) (human, UniProt Q9NR61 27-524).
T3 construct: also called delta-like protein 4
The assay is described as above.

Assay [4] concerns the target T4, rHuman ErbB2/Fc Chimera, CF (R&D Systems Cat#1129-ER) (human, UniProt P04626 23-652).
T4 construct: also called HER2/neu; human epidermal growth factor 2 receptor; Fc part of the bought chimera not given
The assay is described as above.

In assay [5] the target is T5, rHuman EGF R/Fc Chimera, CF (R&D Systems Cat#344-ER) (human, UniProt P00533 25-645).
T5 construct: also called epidermal growth factor receptor; Fc part of the bought chimera not given
Described as above.

Assay [6] addresses T6, rHuman HGF R/c-MET/Fc Chimera, CF (R&D Systems Cat#358-MT/CF) (human, UniProt P08581 25-932).
T6 construct: also called HGF R/Fc; hepatocyte growth factor receptor; Fc part of the bought chimera not given
The description is as above.

The target of assay [7] is T7, rHuman Notch-1/Fc Chimera, CF (R&D Systems Cat#3647-TK) (human, UniProt P46531 19-526).
T7 construct: Fc part of the bought chimera not given
Described as above.

In assay [8] the target is T8, rHuman CD44/Fc Chimera, CF (R&D Systems Cat#3660-CD) (human, UniProt P16070 21-220).
T8 construct: Fc part of the bought chimera not given
Described as above.

In assay [9] the target is T9, rHuman Notch-1/Fc Chimera, CF (R&D Systems Cat#3647-TK) (human, UniProt P46531 19-526).
T9 construct: Bought Fc chimera; not shown: Fc of the bought chimera
The assay is described as follows: ECL (MSD multi-spot), antigen on plate, Fab 5 nM.

In assay [10] the target is T10, rHuman EGF R/Fc Chimera, CF (R&D Systems Cat#344-ER) (human, UniProt P00533 25-645).
T10 construct: Purchased Fc chimera; not shown: Fc portion of the purchased chimera
The assay is described as follows: MSD ECL multi-spot plate, antigen immobilized; Fab 1.6 nM; blank spot 565.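 Also: blank spot per well as comparator with Hit at signal to blank ratio of 4 or more.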

Assay [11] addresses T11, rHuman IGF-1 sR (IGF-1 sR), CF (R&D Systems Cat#391-GR) (human, UniProt P08069 31-932).
T11 construct: Purchased soluble receptor; also called insulin-like growth factor-1 soluble receptor; IGF-R1
The assay is described as follows: MSD ECL multi-spot plate, antigen immobilized; Fab 200 nM; blank spot 588.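 Also: blank spot per well as comparator with Hit at signal to blank ratio of 4 or more.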

In assay [12] the target is T12, rHuman P-Cadherin/Fc Chimera, CF (R&D Systems Cat#861-PC) (human, UniProt P22223 108-654).
T12 construct: Purchased Fc chimera; not shown: Fc portion of the purchased chimera
The description is as above.

Assay [13] has as its target T13, rHuman Erythropoietin R/Fc Chimera, CF (R&D Systems Cat#963-ER) (human, UniProt P19235 25-250).
T13 construct: Purchased Fc chimera; also called EPO R/Fc; Epo R; not shown: Fc portion of the purchased chimera
T13 sequence: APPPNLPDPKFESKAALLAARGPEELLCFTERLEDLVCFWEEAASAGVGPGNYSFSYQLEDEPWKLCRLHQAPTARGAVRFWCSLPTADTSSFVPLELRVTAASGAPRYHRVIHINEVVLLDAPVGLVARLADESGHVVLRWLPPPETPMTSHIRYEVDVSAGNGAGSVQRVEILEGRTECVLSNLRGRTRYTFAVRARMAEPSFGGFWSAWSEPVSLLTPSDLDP
Described as above.

Assay [14] has as its target T14, Recombinant Human DLL4 (R&D Systems Cat#1506-D4/CF) (human, UniProt Q9NR61 27-524).
T14 construct: Purchased recombinant protein; also called delta-like protein 4
The assay is described as above.

The target in assay [15] is T15, rHuman ErbB2/Fc Chimera, CF (R&D Systems Cat#1129-ER) (human, UniProt P04626 23-652).
T15 construct: Purchased Fc chimera; also called HER2/neu; not shown: Fc portion of the purchased chimera
The assay is described as above.

Assay [16] deals with T10, rHuman EGF R/Fc Chimera, CF (R&D …). The assay is described as above.
For assay [17], the target named is T16, rHuman HGF R/c-MET/Fc Chimera, CF (R&D Systems Cat#358-MT/CF) (human, UniProt P08581 25-932).
T16 construct: Purchased Fc chimera; also called HGF R/Fc; not shown: Fc portion of the purchased chimera
The description is as above.

For assay [18], the target named is T17, rHuman Notch-1/Fc Chimera, CF (R&D Systems Cat#3647-TK) (human, UniProt P46531 19-526).
T17 construct: Purchased Fc chimera; not shown: Fc portion of the purchased chimera
The description is as above.

For assay [19], the target named is T18, rHuman CD44/Fc Chimera, CF (R&D Systems Cat#3660-CD) (human, UniProt P16070 21-220).
T18 construct: Purchased Fc chimera; not shown: Fc portion of the purchased chimera
Described as above.

B1: Fab VH1-8_IGHD2-2*01_IGHJ6*01 & L12_IGKJ1*01 (Fab, V domains shown)
VH: QVQLVQSGAEVKKPGASVKVSCKASGYTFTSYDINWVRQATGQGLEWMGWMNPNSGNTGYAQKFQGRVTMTRNTSISTAYMELSSLRSEDTAVYYCARGGYCSSTSCYADYYYYYGMDVWGQGTTVTVSS
VL: not shown
As to B1, the ECL signal in [1] is 518 ECL signal; in assay [2], 660 ECL signal; in [3], 1550 ECL signal; in [4] it was 557 ECL signal; in assay [5], 560 ECL signal; in assay [6], 551 ECL signal. For the same molecule, the ECL signal came to 612 ECL signal in [7] and 528 ECL signal in [8].

B2: Fab VH1-46_IGHD6-6*01_IGHJ1*01_S102A_S103P_S104Y_H111Y & L6_IGKJ1*01 (Fab, V domains shown)
VH: QVQLVQSGAEVKKPGASVKVSCKASGYTFTSYYMHWVRQAPGQGLEWMGIINPSGGSTSYAQKFQGRVTMTRDTSTSTVYMELSSLRSEDTAVYYCAREEYAPYSAEYFQYWGQGTLVTVSS
VL: not shown
notes: Fab made in E. coli; The heavy chain also carries CH1 with Flag and His tags from Plasmid A, and the light chain carries kappa CL from Plasmid C
B2: the ECL signal in assay [9] is 3230 ECL signal.

B3: Fab VH5-51_IGHD5-18*01>3_IGHJ4*01_G100K & V3-4_IGLJ1*01 (Fab, V domains shown)
VH: EVQLVQSGAEVKKPGESLKISCKGSGYSFTSYWIGWVRQMPGKGLEWMGIIYPGDSDTRYSPSFQGQVTISADKSISTAYLQWSSLKASDTAMYYCARRKYSYGYDYFDYWGQGTLVTVSS
VL: QTVVTQEPSFSVSPGGTVTLTCGLSSGSVSTSYYPSWYQQTPGQAPRTLIYSTNTRSSGVPDRFSGSILGNKAALTITGAQADDESDYYCVLYMGSGISYVFGTGTKVTVL
notes: It was expressed as a Fab: CH1 with tags from Plasmid A and lambda CL from Plasmid E; also called Fab No. 22
On to B3, for which the ECL signal in [10] is 1180 ECL signal; in assay [11], 1320 ECL signal; in assay [12], 1130 ECL signal; in assay [13] it was 1230 ECL signal; in [14] it was 45400 ECL signal; in assay [15], 1470 ECL signal. Moreover, the ECL signal was determined as 1370 ECL signal in assay [16], 1430 ECL signal in assay [17], 1250 ECL signal in assay [18] and 1160 ECL signal in [19].
